Data on 16 molecules can be found in patent US20200317753A1 (LIFEARC, published 2020).

By EC50 is commonly meant the concentration that produces a half-maximal response. A higher EC50 goes with a need for much substance.

The target of experiment [1] is T1, EV71-VLP (virus-like particle) (Enterovirus 71).
T1 construct: Particle of several capsid proteins
The experiment can be described thus: binding ELISA on EV71-VLP, absorbance at 450 nm.

For experiment [2], the target named is T2, SP70 peptide epitope of the EV71 VP1 capsid protein (Enterovirus 71).
T2 construct: 15-amino acid peptide; residues 208-222 counted on VP1
T2 peptide: YPTFGEHKQEKDLEY
The experiment is described as follows: binding ELISA on SP70 peptide, absorbance at 450 nm. (In general: ELISA stands for enzyme-linked immunosorbent assay.)

Experiment [3] deals with T1, EV71-VLP (virus-like particle). The experiment can be described thus: Bio-Layer Interferometry, steady state plot (apparent KD). Background: BLI is a label-free optical method that tracks binding on a fibre tip over time.
Experiment [4] deals with T2, SP70 peptide epitope of the EV71 VP1 …. The experiment can be described thus: binding ELISA on SP70 peptide, OD 650 nm [upper panel].
Protocol: (§1) Serial dilutions of antibody variants (starting from ˜100 −g/ml) were added to immobilised EV71-VLP or the SP70 peptide epitope, shaken for one hour at room temperature and washed with PBS-T. Anti-human kappa chain HRP was added and the incubation and washing steps were repeated. TMB/K-Blue substrate was incubated with the reaction for 5-10 minutes at room temperature before the reaction was stopped with H₂SO₄ RED STOP. The optical density was read at 450/650 nm.
Experiment [5] shares this target. The experiment is described as follows: isothermal titration calorimetry, observed KA. For orientation: In ITC the heat of successive injections is recorded.
Description: (§2) KD can be calculated using Gibbs free energy, enthalpy and entropy: ΔG=ΔH−TΔS and ΔG=RT In KD.
Experiment [6] has the same target. The experiment is described as follows: isothermal titration calorimetry, observed KD.
Description: as §2
Experiment [7] shares this target. The experiment can be described thus: isothermal titration calorimetry.
The target is the same in experiment [8]. The experiment can be described thus: binding ELISA on SP70 peptide, OD 650 nm.
Protocol: as §1
Experiment [9] deals with T1, EV71-VLP (virus-like particle). The experiment can be described thus: binding ELISA on EV71-VLP, absorbance at 450 nm. This is another data set of the same source.
The target of experiment [10] is T2, SP70 peptide epitope of the EV71 VP1 …. The experiment is described as follows: binding ELISA on SP70 peptide, absorbance at 450 nm.
Experiment [11] shares this target. The experiment can be described thus: isothermal titration calorimetry (observed KD); the text paragraph 208 prints 17.1 nM.
Experiment [12] shares this target. The experiment is described as follows: binding ELISA on SP70 peptide, OD 650 nm.
Protocol: as §1

Read-outs that look alike come from different tables or passages of the source.

B1: murine D5 antibody (antibody, V domains shown)
VH: EVQLQQSGAELVKPGASVKLSCTASGFNIKDTYIHWVKQRPEQGLEWIGKIDPANGNTKYDPKFQDKATITADTSSNTAYLQLSSLTSEDTAVYYCANSNYWFDFDYWGQGTTLTVSS
VL: DVLMTQTPLSLPVSLGDQASISCRSSQSIVHSNGNTYLEWYLQKPGQSPKLLIYKVSNRFSGVPDRFSGSGSGTDFTLKISRVEADDVGVYYCYQGSHVPYTFGGGTKLEIK
notes: Mouse monoclonal IgG1 (label mD5 IgG1); also called mD5; mouse D5
Regarding B1, the EC50 was found to be 12.7 nM in experiment [1] and 0.3 nM in [2]. Moreover, the Kd in experiment [3] came to 1.8 nM.

B2: hEV71 HAKA (antibody, V domains shown)
VH: QVQLVQSGAEVKKPGASVKVSCKASGYTFTDTYIHWVRQAPGQRLEWIGKIDPANGNTKYDPKFQDRVTITRDTSASTAYMELSSLRSEDTAVYYCASSNYWFDFDYWGQGTLVTVSS
VL: DIVMTQSPLSLPVTPGEPASISCRSSQSIVHSNGNTYLEWYLQKPGQSPQLLIYKVSNRFSGVPDRFSGSGSGTDFTLKISRVEAEDVGVYYCYQGSHVPYTFGGGTKVEIK
notes: Variable domains only; cloned into pHuG1 and pHuK (human IgG / kappa) vectors, expressed in Expi293 cells
In the case of B2, the binding result in experiment [4] is recorded as “binds”.

B3: chimeric D5 antibody (antibody, V domains shown)
VH: EVQLQQSGAELVKPGASVKLSCTASGFNIKDTYIHWVKQRPEQGLEWIGKIDPANGNTKYDPKFQDKATITADTSSNTAYLQLSSLTSEDTAVYYCANSNYWFDFDYWGQGTTLTVSS
VL: DVLMTQTPLSLPVSLGDQASISCRSSQSIVHSNGNTYLEWYLQKPGQSPKLLIYKVSNRFSGVPDRFSGSGSGTDFTLKISRVEADDVGVYYCYQGSHVPYTFGGGTKLEIK
notes: Human constant regions and murine D5 variable regions, expressed in Expi293 cells; also called chD5; cD5 CHCK
As to B3, the Ka in experiment [5] was found to be 5.66e+07 M⁻¹. The results for the Kd in experiment [6], in [3] and in experiment [11] were 17.1 nM, 0.2 nM and 17.7 nM, respectively. Besides, the ΔH in experiment [7] was -12.8 kcal/mol. This molecule came in with a ΔS in experiment [7] of -7.63 cal/mol/deg. For the same molecule, the figures for the EC50 in [8], in [9] and in experiment [10] were 1.4 nM, 1.6 nM and 6.7 nM, respectively.

B4: hEV71 HPKA (antibody, V domains shown)
VH: QVQLVQSGAEVKKPGASVKVSCKASGYTFTDTYIHWVRQAPGQRLEWIGKIDPANGNTKYDPKFQDKVTITRDTSASTAYMELSSLRSEDTAVYYCANSNYWFDFDYWGQGTLVTVSS
VL: DIVMTQSPLSLPVTPGEPASISCRSSQSIVHSNGNTYLEWYLQKPGQSPQLLIYKVSNRFSGVPDRFSGSGSGTDFTLKISRVEAEDVGVYYCYQGSHVPYTFGGGTKVEIK
notes: Variable domains only
For the molecule B4, the EC50 in experiment [8] was determined as 67.7 nM.

B5: hEV71 HBKA (antibody, V domains shown)
VH: QVQLVQSGAEVKKPGASVKVSCKASGFNIKDTYIHWVRQAPGQRLEWIGKIDPANGNTKYDPKFQDKATITADTSASTAYMELSSLRSEDTAVYYCANSNYWFDFDYWGQGTLVTVSS
VL: DIVMTQSPLSLPVTPGEPASISCRSSQSIVHSNGNTYLEWYLQKPGQSPQLLIYKVSNRFSGVPDRFSGSGSGTDFTLKISRVEAEDVGVYYCYQGSHVPYTFGGGTKVEIK
notes: Variable domains only; pHuG1 / pHuK vectors
B5 displayed an EC50 in [8] of 1.62 nM.

B6: hEV71 HHKA (antibody, V domains shown)
VH: QVQLVQSGAEVKKPGASVKVSCKASGYTFTDTYIHWVRQAPGQRLEWIGKIDPANGNTKYDPKFQDRATITRDTSASTAYMELSSLRSEDTAVYYCASSNYWFDFDYWGQGTLVTVSS
VL: DIVMTQSPLSLPVTPGEPASISCRSSQSIVHSNGNTYLEWYLQKPGQSPQLLIYKVSNRFSGVPDRFSGSGSGTDFTLKISRVEAEDVGVYYCYQGSHVPYTFGGGTKVEIK
notes: Named only within the range hEV71 HCKA to hEV71 HJKA; Variable domains only
Take B6: in experiment [12], the binding result is recorded as “binds”.

B7: hEV71 HAKB (antibody, V domains shown)
VH: QVQLVQSGAEVKKPGASVKVSCKASGYTFTDTYIHWVRQAPGQRLEWIGKIDPANGNTKYDPKFQDRVTITRDTSASTAYMELSSLRSEDTAVYYCASSNYWFDFDYWGQGTLVTVSS
VL: DVLMTQSPLSLPVTPGEPASISCRSSQSIVHSNGNTYLEWYLQKPGQSPQLLIYKVSNRFSGVPDRFSGSGSGTDFTLKISRVEAEDVGVYYCYQGSHVPYTFGGGTKVEIK
notes: as for B5
Consider B7, for which, in experiment [4], the binding result is “binds”.

B8: hEV71 HFKA (antibody, V domains shown)
VH: QVQLVQSGAEVKKPGASVKVSCKASGYTFKDTYIHWVRQAPGQRLEWIGKIDPANGNTKYDPKFQDRVTITRDTSASTAYMELSSLRSEDTAVYYCASSNYWFDFDYWGQGTLVTVSS
VL: DIVMTQSPLSLPVTPGEPASISCRSSQSIVHSNGNTYLEWYLQKPGQSPQLLIYKVSNRFSGVPDRFSGSGSGTDFTLKISRVEAEDVGVYYCYQGSHVPYTFGGGTKVEIK
notes: as for B6
For B8, the binding result in [12] was “binds”.

B9: hEV71 HDKA (antibody, V domains shown)
VH: QVQLVQSGAEVKKPGASVKVSCKASGYNFTDTYIHWVRQAPGQRLEWIGKIDPANGNTKYDPKFQDRVTITRDTSASTAYMELSSLRSEDTAVYYCASSNYWFDFDYWGQGTLVTVSS
VL: DIVMTQSPLSLPVTPGEPASISCRSSQSIVHSNGNTYLEWYLQKPGQSPQLLIYKVSNRFSGVPDRFSGSGSGTDFTLKISRVEAEDVGVYYCYQGSHVPYTFGGGTKVEIK
notes: Variable domains only
With B9, the binding result in experiment [12] is listed as “binds”.

B10: hEV71 HEKA (antibody, V domains shown)
VH: QVQLVQSGAEVKKPGASVKVSCKASGYTITDTYIHWVRQAPGQRLEWIGKIDPANGNTKYDPKFQDRVTITRDTSASTAYMELSSLRSEDTAVYYCASSNYWFDFDYWGQGTLVTVSS
VL: DIVMTQSPLSLPVTPGEPASISCRSSQSIVHSNGNTYLEWYLQKPGQSPQLLIYKVSNRFSGVPDRFSGSGSGTDFTLKISRVEAEDVGVYYCYQGSHVPYTFGGGTKVEIK
notes: as for B6
For B10, the binding result in [12] is given as “binds”.

B11: hEV71 HQKA (antibody, V domains shown)
VH: QVQLVQSGAEVKKPGASVKVSCTASGFNIKDTYIHWVKQAPGQRLEWIGKIDPANGNTKYDPKFQDKATITADTSANTAYMELSSLRSEDTAVYYCANSNYWFDFDYWGQGTLVTVSS
VL: DIVMTQSPLSLPVTPGEPASISCRSSQSIVHSNGNTYLEWYLQKPGQSPQLLIYKVSNRFSGVPDRFSGSGSGTDFTLKISRVEAEDVGVYYCYQGSHVPYTFGGGTKVEIK
notes: Variable domains only
For B11, the 50% effective concentration (EC50) in experiment [8] is 1.09 nM.

B12: hEV71 HNKA (antibody, V domains shown)
VH: QVQLVQSGAEVKKPGASVKVSCKASGFNIKDTYIHWVKQAPGQRLEWIGKIDPANGNTKYDPKFQDKATITADTSASTAYMELSSLRSEDTAVYYCANSNYWFDFDYWGQGTLVTVSS
VL: DIVMTQSPLSLPVTPGEPASISCRSSQSIVHSNGNTYLEWYLQKPGQSPQLLIYKVSNRFSGVPDRFSGSGSGTDFTLKISRVEAEDVGVYYCYQGSHVPYTFGGGTKVEIK
notes: Variable domains only
In experiment [8], B12 gave a concentration giving a half-maximal response (EC50) of 1.35 nM.

B13: hEV71 HJKA (antibody, V domains shown)
VH: QVQLVQSGAEVKKPGASVKVSCKASGYTFTDTYIHWVRQAPGQRLEWIGKIDPANGNTKYDPKFQDRVTITRDTSASTAYMELSSLRSEDTAVYYCANSNYWFDFDYWGQGTLVTVSS
VL: DIVMTQSPLSLPVTPGEPASISCRSSQSIVHSNGNTYLEWYLQKPGQSPQLLIYKVSNRFSGVPDRFSGSGSGTDFTLKISRVEAEDVGVYYCYQGSHVPYTFGGGTKVEIK
notes: as for B5
Consider B13, for which the binding result in experiment [12] is reported as “binds”.

B14: hEV71 HGKA (antibody, V domains shown)
VH: QVQLVQSGAEVKKPGASVKVSCKASGYTFTDTYIHWVRQAPGQRLEWIGKIDPANGNTKYDPKFQDKVTITRDTSASTAYMELSSLRSEDTAVYYCASSNYWFDFDYWGQGTLVTVSS
VL: DIVMTQSPLSLPVTPGEPASISCRSSQSIVHSNGNTYLEWYLQKPGQSPQLLIYKVSNRFSGVPDRFSGSGSGTDFTLKISRVEAEDVGVYYCYQGSHVPYTFGGGTKVEIK
notes: as for B6
B14: the binding result in experiment [12] is reported as “binds”.

B15: hEV71 HCKA (antibody, V domains shown)
VH: QVQLVQSGAEVKKPGASVKVSCKASGFTFTDTYIHWVRQAPGQRLEWIGKIDPANGNTKYDPKFQDRVTITRDTSASTAYMELSSLRSEDTAVYYCASSNYWFDFDYWGQGTLVTVSS
VL: DIVMTQSPLSLPVTPGEPASISCRSSQSIVHSNGNTYLEWYLQKPGQSPQLLIYKVSNRFSGVPDRFSGSGSGTDFTLKISRVEAEDVGVYYCYQGSHVPYTFGGGTKVEIK
notes: as for B5
On to B15, for which the binding result in experiment [12] is “binds”.

B16: hEV71 HIKA (antibody, V domains shown)
VH: QVQLVQSGAEVKKPGASVKVSCKASGYTFTDTYIHWVRQAPGQRLEWIGKIDPANGNTKYDPKFQDRVTITADTSASTAYMELSSLRSEDTAVYYCASSNYWFDFDYWGQGTLVTVSS
VL: DIVMTQSPLSLPVTPGEPASISCRSSQSIVHSNGNTYLEWYLQKPGQSPQLLIYKVSNRFSGVPDRFSGSGSGTDFTLKISRVEAEDVGVYYCYQGSHVPYTFGGGTKVEIK
notes: as for B6
With B16, in experiment [12], the binding result is “binds”.
